Experiment in all cases: AUC
Test [1] deals with myr(+)MACA-W184A/M185A (HIV-1 (pNL4-3 isolate)).
The target is the same in test [2]. This is another data set of the same source.
Test [3] deals with myristoylated HIV-1 matrix protein, myr(+)MA (HIV-1).
For test [4] the target is unchanged. The source holds these as a separate data set.
The target is the same in test [5]. This is another data set of the same source.
The target of test [6] is myristoylated HIV-1 matrix-capsid, myr(+)MACA (HIV-1 (pNL4-3 isolate)).
For test [7] the target is unchanged. The source holds these as a separate data set.
The target is the same in test [8]. The source holds these as a separate data set.
Test [9] has the same target. The source holds these as a separate data set.
Test [10] concerns the target unmyristoylated HIV-1 matrix-capsid, myr(−)MACA (HIV-1 (pNL4-3 isolate)).
For test [11] the target is unchanged. This is another data set of the same source.
Test [12] has the same target. This is another data set of the same source.

Read-outs that look alike come from different tables or passages of the source.

The record followed here is publication PMC3032006.

Regarding “myr(+)MACA-W184A/M185A (domain or fragment)”, the stoichiometry N in test [1] and in [2] was 2 throughout.
In the case of “myristoylated HIV-1 matrix protein, myr(+)MA (natural protein)”, the stoichiometry N in test [3], in test [4] and in test [5] was 3 throughout. Moreover, the fraction in the 2.4S (trimer) peak of c(s) in [5] is 30%.
On to “myristoylated HIV-1 matrix-capsid, myr(+)MACA (domain or fragment)”, for which the stoichiometry N (commonly a count of units in the complex or per binding partner) in [6] turned out to be 3; in test [7] it was 3; in test [8] it was 3; in test [9], 2. The substance further displayed a Ka in [9] of 33000 M⁻¹. In addition, the fraction in the 4.3S (major) peak of c(s) in test [9] is 70%.
As for “unmyristoylated HIV-1 matrix-capsid, myr(−)MACA (domain or fragment)”, the Ka was determined as 110000 M⁻¹ in [10] and 33000 M⁻¹ in test [11]. In addition, the stoichiometry N in [10], in [11] and in test [12] was 2 each time.
